Patent US20240100162A1 (published 2024)

T1: MAGE-B2 peptide on HLA-A*02:01 (human)
T1 peptide: GVYDGEEHSV

B1: TCR8 (TCR, V domains shown)
Valpha: AQKITQTQPGMFVQEKEAVTLDCTYDTSDQSYGLFWYKQPSSGEMIFLIYQGSYDEQNATEGRYSLNFQKARKSANLVISASQLGDSAMYFCAMRGPTSYGKLTFGQGTILTVHP
Vbeta: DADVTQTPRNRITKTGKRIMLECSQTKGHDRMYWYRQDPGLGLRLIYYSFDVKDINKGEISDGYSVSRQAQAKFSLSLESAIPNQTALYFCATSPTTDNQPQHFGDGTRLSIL
B2: TCR5 (TCR, V domains shown)
Valpha: KNEVEQSPQNLTAQEGEFITINCSYSVGISALHWLQQHPGGGIVSLFMLSSGKKKHGRLIATINIQEKHSSLHITASHPRDSAVYICAPGGNQFYFGTGTSLTVIP
Vbeta: DAGITQSPRYKITETGRQVTLMCHQTWSHSYMFWYRQDLGHGLRLIYYSAAADITDKGEVPDGYVVSRSKTENFPLTLESATRSQTSVYFCASSGSNQPQHFGDGTRLSIL
B3: TCR6 (TCR, V domains shown)
Valpha: AQTVTQSQPEMSVQEAETVTLSCTYDTSENNYYLFWYKQPPSRQMILVIRQEAYKQQNATENRFSVNFQKAAKSFSLKISDSQLGDTAMYFCAFFNAGKSTFGDGTTLTVKP
Vbeta: EAGVAQSPRYKIIEKRQSVAFWCNPISGHATLYWYQQILGQGPKLLIQFQNNGVVDDSQLPKDRFSAERLKGVDSTLKIQPAKLEDSAVYLCASTVGGGPYGYTFGSGTRLTVV
B4: TCR7 (TCR, V domains shown)
Valpha: GQNIDQPTEMTATEGAIVQINCTYQTSGFNGLFWYQQHAGEAPTFLSYNVLDGLEEKGRFSSFLSRSKGYSYLLLKELQMKDSASYLCAVRRLGGYQKVTFGTGTKLQVIP
Vbeta: GAGVSQSPSNKVTEKGKDVELRCDPISGHTALYWYRQRLGQGLEFLIYFQGNSAPDKSGLPSDRFSAERTGESVSTLTIQRTQQEDSAVYLCASSLVTGSSYNEQFFGPGTRLTVL
B5: TCR10 (TCR, V domains shown)
Valpha: AQSVAQPEDQVNVAEGNPLTVKCTYSVSGNPYLFWYVQYPNRGLQFLLKYITGDNLVKGSYGFEAEFNKSQTSFHLKKPSALVSDSALYFCAVRDNARLMFGDGTQLVVKP
Vbeta: SAVISQKPSRDICQRGTSLTIQCQVDSQVTMMFWYRQQPGQSLTLIATANQGSEATYESGFVIDKFPISRPNLTFSTLTVSNMSPEDSSIYLCSVGPSGHTGYTFGSGTRLTVV
B6: TCR11 (TCR, V domains shown)
Valpha: GEDVEQSLFLSVREGDSSVINCTYTDSSSTYLYWYKQEPGAGLQLLTYIFSNMDMKQDQRLTVLLNKKDKHLSLRIADTQTGDSAIYFCAEKSITSYDKVIFGPGTSLSVIP
Vbeta: DVKVTQSSRYLVKRTGEKVFLECVQDMDHENMFWYRQDPGLGLRLIYFSYDVKMKEKGDIPEGYSVSREKKERFSLILESASTNQTSMYLCASTRRGTYGYTFGSGTRLTVV

Molecular target: T1, MAGE-B2 peptide on HLA-A*02:01
Test: multimer staining

Binding result, recognises:
B1, B2, B3, B4, B5, B6
